For experiment [1], the target named is T1, truncated EGFR (EGFRt) (human, UniProt P00533 334-668).
T1 construct: Expressed alone on T cells as the control without a CAR; also called huEGFRt; EGFRt marker
The experiment can be described thus: flow cytometry, biotinylated soluble FcγR + SA-PE on T cells. The procedure: Antibodies and Flow Cytometry. Fluorochrome-conjugated isotype controls, anti-CD3, anti-CD4, anti-CD8, anti-CD45 and streptavidin were obtained from BD Biosciences (San Jose, Calif.). Biotinylated anti-Fc was purchased from Jackson ImmunoResearch Laboratories, Inc. (West Grove, Pa.). Generation of biotinylated-cetuximab was previously described (Wang et al. 2011a). […] The percentage of immunofluorescent cells were analyzed by a FACScalibur system (BD Biosciences), and the percentage of cells in a region of analysis were calculated using FCS Express V3 (De Novo Software, CA, USA).
To determine the efficacy of the different mutations/deletion in the CAR to affect FcR binding, flow cytometric analysis was performed using various human and murine biotinylated soluble FcγRs, and PE-streptavidin (SA-PE) to detect the binding of the FcγRs to the different cell populations.

Experiment [2] addresses T1, truncated EGFR (EGFRt). Description: flow cytometry, titration of biotinylated soluble human FcγR1 + SA-PE on T cells. In general terms: A flow cytometer gives signals particle by particle.

Results on 5 molecules are retold here after patent US20220372164A1 (CITY OF HOPE, published 2022).

B1: biotinylated soluble human FcγR2a (receptor, UniProt P12318 34-218, looked up)
chain: QAAAPPKAVLKLEPPWINVLQEDSVTLTCQGARSPESDSIQWFHNGNLIPTHTQPSYRFKANNNDSGEYTCQTGQTSLSDPVHLTVLSEWLVLQTPHLEFQEGETIMLRCHSWKDKPLVKVTFFQNGKSQKFSHLDPTFSIPQANHSHSGDYHCTGNIGYTLFSSKPVTITVQVPSMGSSSPMGI
modifications: biotinylated
notes: Bought reagent; also called huFcγR2a; Hu R2a
In the case of B1, the binding result in the experiment with truncated EGFR (EGFRt) [1] was “no binding”.

B2: biotinylated soluble human FcγR2b (receptor, UniProt P31994 43-217, looked up)
chain: TPAAPPKAVLKLEPQWINVLQEDSVTLTCRGTHSPESDSIQWFHNGNLIPTHTQPSYRFKANNNDSGEYTCQTGQTSLSDPVHLTVLSEWLVLQTPHLEFQEGETIVLRCHSWKDKPLVKVTFFQNGKSKKFSRSDPNFSIPQANHSHSGDYHCTGNIGYTLYSSKPVTITVQAP
modifications: biotinylated
notes: Bought reagent; also called huFcγR2b; Hu R2b
With B2, the binding result in the experiment with truncated EGFR (EGFRt) [1] is listed as “no binding”.

B3: biotinylated soluble murine FcγR2b (receptor, UniProt P08101 30-207, looked up)
chain: THDLPKAVVKLEPPWIQVLKEDTVTLTCEGTHNPGNSSTQWFHNGRSIRSQVQASYTFKATVNDSGEYRCQMEQTRLSDPVDLGVISDWLLLQTPQLVFLEGETITLRCHSWRNKLLNRISFFHNEKSVRYHHYSSNFSIPKANHSHSGDYYCKGSLGRTLHQSKPVTITVQGPKSSR
modifications: biotinylated
notes: Bought reagent; also called muFcγR2b; Mu R2b
Regarding B3, in the experiment with truncated EGFR (EGFRt) [1], the binding result is “no binding”.

B4: biotinylated soluble human Fc gamma receptor 1 (receptor, UniProt P12314 16-288, looked up)
chain: QVDTTKAVITLQPPWVSVFQEETVTLHCEVLHLPGSSSTQWFLNGTATQTSTPSYRITSASVNDSGEYRCQRGLSGRSDPIQLEIHRGWLLLQVSSRVFTEGEPLALRCHAWKDKLVYNVLYYRNGKAFKFFHWNSNLTILKTNISHNGTYHCSGMGKHRYTSAGISVTVKELFPAPVLNASVTSPLLEGNLVTLSCETKLLLQRPGLQLYFSFYMGSKTLRGRNTSSEYQILTARREDSGLYWCEAATEDGNVLKRSPELELQVLGLQLPTP
modifications: biotinylated
notes: Bought reagent; also called huFcγR1; human FcγR1
On to B4, for which the binding result with truncated EGFR (EGFRt) [2] was “no binding”.

B5: biotinylated soluble murine FcγR1 (receptor, UniProt P26151 25-297, looked up)
chain: EVVNATKAVITLQPPWVSIFQKENVTLWCEGPHLPGDSSTQWFINGTAVQISTPSYSIPEASFQDSGEYRCQIGSSMPSDPVQLQIHNDWLLLQASRRVLTEGEPLALRCHGWKNKLVYNVVFYRNGKSFQFSSDSEVAILKTNLSHSGIYHCSGTGRHRYTSAGVSITVKELFTTPVLRASVSSPFPEGSLVTLNCETNLLLQRPGLQLHFSFYVGSKILEYRNTSSEYHIARAEREDAGFYWCEVATEDSSVLKRSPELELQVLGPQSSAP
modifications: biotinylated
notes: Bought reagent; also called muFcγR1; Mu FcγR1
Turning to B5, in the experiment with truncated EGFR (EGFRt) [1], the binding result was “no binding”.
